# In patent US20210246204A1 (Alector, published 2021):
# Target: human Siglec-7 on primary human monocyte-derived dendritic cells (human, UniProt Q9Y286 19-467)
# Test: cell-based or functional assay
# Sequence of human Siglec-7 on primary human monocyte-derived dendritic cells (Q9Y286 19-467): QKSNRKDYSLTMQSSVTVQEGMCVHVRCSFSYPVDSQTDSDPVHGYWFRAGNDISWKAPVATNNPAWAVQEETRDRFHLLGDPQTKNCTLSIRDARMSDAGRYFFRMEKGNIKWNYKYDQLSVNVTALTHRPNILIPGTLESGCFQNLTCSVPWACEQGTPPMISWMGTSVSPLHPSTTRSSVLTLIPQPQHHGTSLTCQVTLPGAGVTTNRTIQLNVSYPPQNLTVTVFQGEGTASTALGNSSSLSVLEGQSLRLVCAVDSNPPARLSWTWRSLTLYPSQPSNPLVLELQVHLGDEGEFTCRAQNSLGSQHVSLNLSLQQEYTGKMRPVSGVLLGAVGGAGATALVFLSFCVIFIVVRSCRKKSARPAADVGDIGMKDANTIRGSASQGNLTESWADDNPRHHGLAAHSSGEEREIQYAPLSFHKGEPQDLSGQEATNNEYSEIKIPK
Maximal downregulation (% Siglec-7 remaining) [%],"Receptor downregulation, (EC50) (pM)",Fold increase in potency compared to AB-H8 [fold],Fold increase in potency compared to Chimeric Ab [fold],Binder
28.6,1024,–,–,"S7AB chimeric antibody (antibody, V domains shown) VH: QVHLQQSGPELVKPGASVKISCKASGYAFTNCWMNWVRQRPGKGLDWIGRIFPGNGHTNYSGKFKDKATLTEDKSSSTAYMQLSSLTSEDSAVYFCARDYSDYYFDYWGQGTTLTVSS VL: DVQMTQTTSSLSASLGDRVTISCRASQDINTYLNWYQQKPDGTVKLLIYYTSRLHSGVPSRFSGSGSGTDYSLTISNLEQEDIATYFCQQGNTLPWTFGGGTKLEIK"
4.3,103,3.5,10.5,"S7AB-H8.9.1 (antibody, V domains shown) VH: QVQLVQSGAEVKKPGASVKVSCKASGYAFTAAWMNWVRQAPGQRLEWIGRIFPGLGHTNYAQKFQGRATLTEDTSTSTAYMELSSLRSEDTAVYYCARDYSDYYFDYWGQGTLVTVSS VL: DIQMTQSPSSLSASVGDRVTITCRGSQDINTYLNWYQQKPGKAPKLLIYYTSRLHSGVPSRFSGSGSGTDYTLTISSLQPEDFATYYCQQGNTKPWTFGQGTKLEIK"
4.5,118,3.1,9.2,"S7AB-H8.9.2 (antibody, V domains shown) VH: QVQLVQSGAEVKKPGASVKVSCKASGYAFTAAWMNWVRQARGQRLEWIGRIFPGLGHTNYAQKFQGRATLTEDTSTSTAYMELSSLRSEDTAVYYCARDYSDYYFDYWGQGTLVTVSS VL: DIQMTQSPSSLSASVGDRVTITCRGSQDINTYLNWYQQKPGKAPKLLIYYTSRLHSGVPSRFSGSGSGTDYTLTISSLQPEDFATYYCQQGNTKPWTFGQGTKLEIK"
4.4,99.5,3.6,10.9,"S7AB-H8.34.1 (antibody, V domains shown) VH: QVQLVQSGAEVKKPGASVKVSCKASGYAFTAAWMNWVRQAPGQRLEWIGRIFPGLGHTNYAQKFQGRATLTEDTSTSTAYMELSSLRSEDTAVYYCARDYSDYYFDYWGQGTLVTVSS VL: DIQMTQSPSSLSASVGDRVTITCRGSQDINTYLNWYQQKPGKAPKLLIYYTSRLHSGVPSRFSGSGSGTDYTLTISSLQPEDFATYYCQQGGTLPWTFGQGTKLEIK"
10.5,184,2,5.9,"S7AB-H8.35.1 (antibody, V domains shown) VH: QVQLVQSGAEVKKPGASVKVSCKASGYAFTEAWMNWVRQAPGQRLEWIGRIFPGYGHTNYAQKFQGRATLTEDTSTSTAYMELSSLRSEDTAVYYCARDYSDYYFDYWGQGTLVTVSS VL: DIQMTQSPSSLSASVGDRVTITCRGSQDINTYLNWYQQKPGKAPKLLIYYTSRLHSGVPSRFSGSGSGTDYTLTISSLQPEDFATYYCQQGGTLPWTFGQGTKLEIK"
5.4,110,3.3,9.9,"S7AB-H8.34.2 (antibody, V domains shown) VH: QVQLVQSGAEVKKPGASVKVSCKASGYAFTAAWMNWVRQARGQRLEWIGRIFPGLGHTNYAQKFQGRATLTEDTSTSTAYMELSSLRSEDTAVYYCARDYSDYYFDYWGQGTLVTVSS VL: DIQMTQSPSSLSASVGDRVTITCRGSQDINTYLNWYQQKPGKAPKLLIYYTSRLHSGVPSRFSGSGSGTDYTLTISSLQPEDFATYYCQQGGTLPWTFGQGTKLEIK"
5.3,53.2,6.8,20.4,"S7AB-H8.29.1 (antibody, V domains shown) VH: QVQLVQSGAEVKKPGASVKVSCKASGYAFTAAWMNWVRQAPGQRLEWIGRIFPGLGHTNYAQKFQGRATLTEDTSTSTAYMELSSLRSEDTAVYYCARDYSDYYFDYWGQGTLVTVSS VL: DIQMTQSPSSLSASVGDRVTITCRASQDANTYLNWYQQKPGKAPKLLIYYTSRLHSGVPSRFSGSGSGTDYTLTISSLQPEDFATYYCQQGNLLPWTFGQGTKLEIK"
10.7,154,2.4,7,"S7AB-H8.10.1 (antibody, V domains shown) VH: QVQLVQSGAEVKKPGASVKVSCKASGYAFTEAWMNWVRQAPGQRLEWIGRIFPGYGHTNYAQKFQGRATLTEDTSTSTAYMELSSLRSEDTAVYYCARDYSDYYFDYWGQGTLVTVSS VL: DIQMTQSPSSLSASVGDRVTITCRGSQDINTYLNWYQQKPGKAPKLLIYYTSRLHSGVPSRFSGSGSGTDYTLTISSLQPEDFATYYCQQGNTKPWTFGQGTKLEIK"
10.1,115,3.2,9.4,"S7AB-H8.30.2 (antibody, V domains shown) VH: QVQLVQSGAEVKKPGASVKVSCKASGYAFTEAWMNWVRQARGQRLEWIGRIFPGYGHTNYAQKFQGRATLTEDTSTSTAYMELSSLRSEDTAVYYCARDYSDYYFDYWGQGTLVTVSS VL: DIQMTQSPSSLSASVGDRVTITCRASQDANTYLNWYQQKPGKAPKLLIYYTSRLHSGVPSRFSGSGSGTDYTLTISSLQPEDFATYYCQQGNLLPWTFGQGTKLEIK"
8.7,109,3.3,9.9,"S7AB-H8.45.2 (antibody, V domains shown) VH: QVQLVQSGAEVKKPGASVKVSCKASGYAFTEAWMNWVRQARGQRLEWIGRIFPGYGHTNYAQKFQGRATLTEDTSTSTAYMELSSLRSEDTAVYYCARDYSDYYFDYWGQGTLVTVSS VL: DIQMTQSPSSLSASVGDRVTITCRGSQDINTYLNWYQQKPGKAPKLLIYYTSRLHSGVPSRFSGSGSGTDYTLTISSLQPEDFATYYCQQGNILPWTFGQGTKLEIK"
4.9,88.9,4.1,12.2,"S7AB-H8.29.2 (antibody, V domains shown) VH: QVQLVQSGAEVKKPGASVKVSCKASGYAFTAAWMNWVRQARGQRLEWIGRIFPGLGHTNYAQKFQGRATLTEDTSTSTAYMELSSLRSEDTAVYYCARDYSDYYFDYWGQGTLVTVSS VL: DIQMTQSPSSLSASVGDRVTITCRASQDANTYLNWYQQKPGKAPKLLIYYTSRLHSGVPSRFSGSGSGTDYTLTISSLQPEDFATYYCQQGNLLPWTFGQGTKLEIK"
4.1,73.9,4.9,14.7,"S7AB-H8.44.1 (antibody, V domains shown) VH: QVQLVQSGAEVKKPGASVKVSCKASGYAFTAAWMNWVRQAPGQRLEWIGRIFPGLGHTNYAQKFQGRATLTEDTSTSTAYMELSSLRSEDTAVYYCARDYSDYYFDYWGQGTLVTVSS VL: DIQMTQSPSSLSASVGDRVTITCRGSQDINTYLNWYQQKPGKAPKLLIYYTSRLHSGVPSRFSGSGSGTDYTLTISSLQPEDFATYYCQQGNILPWTFGQGTKLEIK"
11.3,134,2.7,8.1,"S7AB-H8.30.1 (antibody, V domains shown) VH: QVQLVQSGAEVKKPGASVKVSCKASGYAFTEAWMNWVRQAPGQRLEWIGRIFPGYGHTNYAQKFQGRATLTEDTSTSTAYMELSSLRSEDTAVYYCARDYSDYYFDYWGQGTLVTVSS VL: DIQMTQSPSSLSASVGDRVTITCRASQDANTYLNWYQQKPGKAPKLLIYYTSRLHSGVPSRFSGSGSGTDYTLTISSLQPEDFATYYCQQGNLLPWTFGQGTKLEIK"
10.8,205,1.8,5.3,"S7AB-H8.35.2 (antibody, V domains shown) VH: QVQLVQSGAEVKKPGASVKVSCKASGYAFTEAWMNWVRQARGQRLEWIGRIFPGYGHTNYAQKFQGRATLTEDTSTSTAYMELSSLRSEDTAVYYCARDYSDYYFDYWGQGTLVTVSS VL: DIQMTQSPSSLSASVGDRVTITCRGSQDINTYLNWYQQKPGKAPKLLIYYTSRLHSGVPSRFSGSGSGTDYTLTISSLQPEDFATYYCQQGGTLPWTFGQGTKLEIK"
3.3,76.7,4.7,14.1,"S7AB-H8.44.2 (antibody, V domains shown) VH: QVQLVQSGAEVKKPGASVKVSCKASGYAFTAAWMNWVRQARGQRLEWIGRIFPGLGHTNYAQKFQGRATLTEDTSTSTAYMELSSLRSEDTAVYYCARDYSDYYFDYWGQGTLVTVSS VL: DIQMTQSPSSLSASVGDRVTITCRGSQDINTYLNWYQQKPGKAPKLLIYYTSRLHSGVPSRFSGSGSGTDYTLTISSLQPEDFATYYCQQGNILPWTFGQGTKLEIK"
12.1,169,2.1,6.4,"S7AB-H8.10.2 (antibody, V domains shown) VH: QVQLVQSGAEVKKPGASVKVSCKASGYAFTEAWMNWVRQARGQRLEWIGRIFPGYGHTNYAQKFQGRATLTEDTSTSTAYMELSSLRSEDTAVYYCARDYSDYYFDYWGQGTLVTVSS VL: DIQMTQSPSSLSASVGDRVTITCRGSQDINTYLNWYQQKPGKAPKLLIYYTSRLHSGVPSRFSGSGSGTDYTLTISSLQPEDFATYYCQQGNTKPWTFGQGTKLEIK"
7.8,97,3.7,11.2,"S7AB-H8.45.1 (antibody, V domains shown) VH: QVQLVQSGAEVKKPGASVKVSCKASGYAFTEAWMNWVRQAPGQRLEWIGRIFPGYGHTNYAQKFQGRATLTEDTSTSTAYMELSSLRSEDTAVYYCARDYSDYYFDYWGQGTLVTVSS VL: DIQMTQSPSSLSASVGDRVTITCRGSQDINTYLNWYQQKPGKAPKLLIYYTSRLHSGVPSRFSGSGSGTDYTLTISSLQPEDFATYYCQQGNILPWTFGQGTKLEIK"
